Assay results published in PMC12187869, “Transport of the uremic toxin symmetric dimethylarginine (SDMA) by renal transport proteins” (Amino Acids, 2025).

System: T1, CN=C(NC)NCCC[C@H](N)C(=O)O
T1 construct: HEK293 cells stably expressing human CAT1
Assay: [3H]SDMA uptake kinetics (Km) and efflux in HEK-CAT1 cells
Format: cell-based, Homo sapiens

Chain of CAT1 (Homo sapiens) (chain, as listed by the source): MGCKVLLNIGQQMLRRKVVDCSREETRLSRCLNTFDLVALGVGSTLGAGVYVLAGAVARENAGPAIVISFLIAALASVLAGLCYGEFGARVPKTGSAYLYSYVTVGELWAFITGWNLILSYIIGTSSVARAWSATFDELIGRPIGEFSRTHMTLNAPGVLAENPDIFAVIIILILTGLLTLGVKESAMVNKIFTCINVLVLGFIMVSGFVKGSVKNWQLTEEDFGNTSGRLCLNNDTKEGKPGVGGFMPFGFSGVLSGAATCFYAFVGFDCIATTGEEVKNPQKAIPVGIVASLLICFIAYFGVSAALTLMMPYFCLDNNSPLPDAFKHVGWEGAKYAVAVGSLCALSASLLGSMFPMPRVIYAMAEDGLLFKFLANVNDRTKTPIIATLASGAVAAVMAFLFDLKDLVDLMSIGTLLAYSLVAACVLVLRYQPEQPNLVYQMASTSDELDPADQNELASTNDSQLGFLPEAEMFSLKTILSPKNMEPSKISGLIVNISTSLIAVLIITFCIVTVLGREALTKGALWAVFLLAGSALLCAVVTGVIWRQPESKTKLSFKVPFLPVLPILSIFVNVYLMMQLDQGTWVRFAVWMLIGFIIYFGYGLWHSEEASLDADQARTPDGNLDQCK

CAT1 (Homo sapiens)
Km: 246 µM
